Source: patent publication US20140315986

Legend:
[1] = target: IL-6 (mature human interleukin-6) (Homo sapiens) (UniProt P05231); experiment: filter
[2] = target: IL-6 (mature human interleukin-6) (Homo sapiens) (UniProt P05231); experiment: cell_activity; conditions: 2'-OMe at C3,G6,A16,A19,C20,C28, STAT3 gene reporter assay
[3] = target: T1, IL-6 (Macaca fascicularis) (UniProt P79341); experiment: filter; conditions: Bn-dU at 7,8,14,15,22,23,27,30; PE-dU at 9; Nap-dU at 12; 2'-OMe at C3,G6,A16,A19,C20,C28
T1 sequence: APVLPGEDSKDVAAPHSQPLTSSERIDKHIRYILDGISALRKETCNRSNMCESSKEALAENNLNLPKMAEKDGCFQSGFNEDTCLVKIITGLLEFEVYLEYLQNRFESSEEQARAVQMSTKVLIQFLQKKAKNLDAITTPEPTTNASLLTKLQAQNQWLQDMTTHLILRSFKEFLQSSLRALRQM

[4] = target: T1, IL-6 (Macaca fascicularis); experiment: cell_activity; conditions: Bn-dU at 7,8,14,15,22,23,27,30; PE-dU at 9; Nap-dU at 12; 2'-OMe at C3,G6,A16,A19,C20,C28; gene reporter assay

Sequence	Kd ([1]; all U are Nap-dU) [nM]	further results
GATGTGAGTGTGTGACGAGGGGGUUAUGUAGCGAGUGCGUAAGGCGGUGGGCGAGGGAUCACAGAGAAGAAACAAGACC [2574-49]		Kd ([1]; all U are Nap-dU (5-naphthylmethylcarboxamide-dU), SB17T-0.002 (125 mM NaCl, 5 mM KCl, 5 mM MgCl2), 37 C, ZORBAX capture): 2 nM
GATGTGAGTGTGTGACGAGUGGGCAGGUUUGGUAUUAACACGUUAAGUCGUGGGGUCGCACAGAGAAGAAACAAGACC [2573-20]		Kd ([1]; all U are Bn-dU (5-benzylcarboxamide-dU), SB17T-0.002 (125 mM NaCl, 5 mM KCl, 5 mM MgCl2), 37 C, ZORBAX capture): 3 nM
GGCAGGUUUGGUAUUAACACGUUAAGUCGUGG [2573-20_15]		Kd ([1]; all U are Bn-dU): 1 nM
GGCAGGUUUGGUAUUAACACGUUAAGUCGUGG [2573-20_135]		IC50 ([2]; all U are Bn-dU): 0.24 nM
GGCAGGUUUGGUAUUAACACGUUAAGUCGUGG [2573-20_136]		Kd [3]: 2 nM; IC50 [4]: 9.7 nM; IC50 ([2]; Bn-dU at 7,8,14,15,22,23,27,30, PE-dU at 9, Nap-dU at 12): 0.5 nM
GGCAGGUUUGGUAUUAACACGUUAAGUCGUGGG [2573-20_14]		Kd ([1]; all U are Bn-dU): 2.8 nM
GGCAGGUUUGGUAUUAACACGUUAAGUCGUGGGG [2573-20_13]		Kd ([1]; all U are Bn-dU): 1.9 nM
GGCAGGUUUGGUAUUAACACGUUAAGUCGUGGGGU [2573-20_12]		Kd ([1]; all U are Bn-dU): 1.4 nM
GGCAGGUUUGGUAUUAACACGUUAAGUCGUGGGGUC [2573-20_3]		Kd ([1]; all U are Bn-dU): 1.5 nM
GGCAGGUUUGGUGUGG [2573-20_324 Bn7 to MBn variant]		Kd ([1]; G-G-C1-A-G-G1-MBn-Bn-Pe-G-G-Nap-C3-G-Bn-G-G (1=2'-OMe, C3=spacer), 100-fold improvement over parent stated): 1 nM
GGCAGGUUUGGUGUGG [2573-20_324 G-quartet fragment]		Kd ([1]; G-G-C1-A-G-G1-Bn-Bn-Pe-G-G-Nap-C3-G-Bn-G-G (1=2'-OMe, C3=spacer), p263 states approximately 200 nM): 270 nM
GGGGUUAUGUAGCGAGUGCGUAAGGCGGUG [2574-49_14]	0.7	
GGGGUUAUGUAGCGAGUGCGUAAGGCGGUGG [2574-49_13]	1.1	
GGGGUUAUGUAGCGAGUGCGUAAGGCGGUGGG [2574-49_12]	1.1	
GGGGUUAUGUAGCGAGUGCGUAAGGCGGUGGGC [2574-49_11]	1.5	
GGGGUUAUGUAGCGAGUGCGUAAGGCGGUGGGCG [2574-49_10]	1.9	
GGGGUUAUGUAGCGAGUGCGUAAGGCGGUGGGCGA [2574-49_9]	1.8	
GGGGUUAUGUAGCGAGUGCGUAAGGCGGUGGGCGAG [2574-49_8]	1.2	
GGGGUUAUGUAGCGAGUGCGUAAGGCGGUGGGCGAGG [2574-49_7]	2.6	
GGGGUUAUGUAGCGAGUGCGUAAGGCGGUGGGCGAGGG [2574-49_6]	3.5	
GGGGUUAUGUAGCGAGUGCGUAAGGCGGUGGGCGAGGGA [2574-49_3]	4.1	
GGGUUAUGUAGCGAGUGCGUAAGGCGGUGGGCGAGGGA [2574-49_15]	2.1	
GGUUAUGUAGCGAGUGCGUAAGGCGGUGGGCGAGGGA [2574-49_16]	3.9	
GUUAUGUAGCGAGUGCGUAAGGCGGUGGGCGAGGGA [2574-49_17]	17	
UUAUGUAGCGAGUGCGUAAGGCGGUGGGCGAGGGA [2574-49_18]	19	
